Experimental data reported in paper PMC9352680, “A comprehensive thermodynamic model for RNA binding by the Saccharomyces cerevisiae Pumilio protein PUF4”.

T1: PUF4 RNA-binding domain (Saccharomyces cerevisiae, UniProt P25339 537-888)
T1 sequence: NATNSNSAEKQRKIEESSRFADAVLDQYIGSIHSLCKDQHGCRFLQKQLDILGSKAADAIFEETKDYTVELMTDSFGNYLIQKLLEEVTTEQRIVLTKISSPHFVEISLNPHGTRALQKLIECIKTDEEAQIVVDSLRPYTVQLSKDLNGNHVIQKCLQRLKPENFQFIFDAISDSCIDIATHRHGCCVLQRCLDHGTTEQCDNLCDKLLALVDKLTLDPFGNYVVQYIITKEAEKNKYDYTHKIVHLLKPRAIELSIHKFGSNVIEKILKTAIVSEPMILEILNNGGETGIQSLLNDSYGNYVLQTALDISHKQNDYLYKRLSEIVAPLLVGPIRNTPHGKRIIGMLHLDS


target: T1, PUF4 RNA-binding domain; assay: Mg; RNA-MaP; 20 mM Na-HEPES pH 7.4, 30 mM KOAc, 0.75 mM MgCl2, 0.1% Tween-20, 5% glycerol, 0.1 mg/mL BSA, 2 mM DTT; 25 C; 0.0125-409.6 nM protein; conditions: tags: N-His6-TEV cleaved; C-SNAP kept, Cy3B-labelled; label: tethered on chip by stalled RNA polymerase

| Binder | Kd |
| --- | --- |
| Ic_S4_P5E.1_K5.1_C5.1_H5.1_A5.1_[A7T]_F5.1_[T8C]_[T9G]_[A10T]_T5.1 (ssRNA) RNA: UUUGACAACUGAUCGUUCUUUCUUGUAUUUCGUUUCUUUCUCGAUCAGUUGUCUUU | 62.1 nM |
| Ic_S4_P5E.1_K5.1_C5.1_H5.1_A5.1_[T5A]_[T6C]_[A7T]_F5.1_[T8C]_[T9A]_[A10T]_T5.1 (ssRNA) RNA: UUUGACAACUGAUCGUUCUUUCUUGUAACUCAUUUCUUUCUCGAUCAGUUGUCUUU | 325 nM |
| Ic_S4_P5E.1_K5.1_C5.1_H5.1_A5.1_[T5C]_[T6G]_[A7C]_F5.1_[T8G]_[A10C]_T5.1 (ssRNA) RNA: UUUGACAACUGAUCGUUCUUUCUUGUACGCGUCUUCUUUCUCGAUCAGUUGUCUUU | > 2300 nM |
| Ic_S4_P5E.1_K5.1_C5.1_H5.1_A5.1_[T5A]_[T6C]_[A7T]_F5.1_[T8G]_[T9C]_[A10T]_T5.1 (ssRNA) RNA: UUUGACAACUGAUCGUUCUUUCUUGUAACUGCUUUCUUUCUCGAUCAGUUGUCUUU | 304 nM |
| Ic_S4_P5E.1_K5.1_C5.1_H5.1_A5.1_[T6G]_[A7T]_F5.1_[T8C]_[T9C]_[A10C]_T5.1 (ssRNA) RNA: UUUGACAACUGAUCGUUCUUUCUUGUAUGUCCCUUCUUUCUCGAUCAGUUGUCUUU | 66.1 nM |
| Ic_S4_P5E.1_K5.1_C5.1_H5.1_A5.1_[T5A]_[A7T]_F5.1_[T9G]_[A10C]_T5.1 (ssRNA) RNA: UUUGACAACUGAUCGUUCUUUCUUGUAAUUUGCUUCUUUCUCGAUCAGUUGUCUUU | 46.7 nM |
| Ic_S4_P5E.1_K5.1_C5.1_H5.1_A5.1_[A7T]_F5.1_[T8G]_[T9C]_[A10T]_T5.1 (ssRNA) RNA: UUUGACAACUGAUCGUUCUUUCUUGUAUUUGCUUUCUUUCUCGAUCAGUUGUCUUU | 80.4 nM |
| Ic_S4_P5E.1_K5.1_C5.1_H5.1_A5.1_[T6A]_[A7C]_F5.1_[T8A]_[T9C]_[A10T]_T5.1 (ssRNA) RNA: UUUGACAACUGAUCGUUCUUUCUUGUAUACACUUUCUUUCUCGAUCAGUUGUCUUU | 75.1 nM |
| Ic_S4_P5E.1_K5.1_C5.1_H5.1_A5.1_F5.1_[T8C]_[T9C]_[A10T]_T5.1 (ssRNA) RNA: UUUGACAACUGAUCGUUCUUUCUUGUAUUACCUUUCUUUCUCGAUCAGUUGUCUUU | 160 nM |
| Ic_S4_P5E.1_K5.1_C5.1_H5.1_A5.1_[T5A]_[T6C]_[A7C]_F5.1_[T9C]_[A10G]_T5.1 (ssRNA) RNA: UUUGACAACUGAUCGUUCUUUCUUGUAACCUCGUUCUUUCUCGAUCAGUUGUCUUU | 610 nM |
| Ic_S4_P5E.1_K5.1_C5.1_H5.1_A5.1_[T5C]_[A7G]_F5.1_[T8C]_[T9G]_[A10C]_T5.1 (ssRNA) RNA: UUUGACAACUGAUCGUUCUUUCUUGUACUGCGCUUCUUUCUCGAUCAGUUGUCUUU | 1350 nM |
| Ic_S4_P5E.1_K5.1_C5.1_H5.1_A5.1_[T5C]_[T6A]_[A7G]_F5.1_[T9C]_[A10C]_T5.1 (ssRNA) RNA: UUUGACAACUGAUCGUUCUUUCUUGUACAGUCCUUCUUUCUCGAUCAGUUGUCUUU | 13.2 nM |
| Ic_S4_P5E.1_K5.1_C5.1_H5.1_A5.1_[T6C]_[A7T]_F5.1_[T8C]_[A10G]_T5.1 (ssRNA) RNA: UUUGACAACUGAUCGUUCUUUCUUGUAUCUCUGUUCUUUCUCGAUCAGUUGUCUUU | 19.1 nM |
| Ic_S4_P5E.1_K5.1_C5.1_H5.1_A5.1_[T6A]_F5.1_[T9G]_[A10G]_T5.1 (ssRNA) RNA: UUUGACAACUGAUCGUUCUUUCUUGUAUAAUGGUUCUUUCUCGAUCAGUUGUCUUU | 16.6 nM |
| Ic_S4_P5E.1_K5.1_C5.1_H5.1_A5.1_[T5A]_[T6A]_[A7C]_F5.1_[T9A]_[A10T]_T5.1 (ssRNA) RNA: UUUGACAACUGAUCGUUCUUUCUUGUAAACUAUUUCUUUCUCGAUCAGUUGUCUUU | 2.41 nM |
| Ic_S4_P5E.1_K5.1_C5.1_H5.1_A5.1_[T5A]_[T6A]_[A7T]_F5.1_[T8C]_[T9A]_[A10G]_T5.1 (ssRNA) RNA: UUUGACAACUGAUCGUUCUUUCUUGUAAAUCAGUUCUUUCUCGAUCAGUUGUCUUU | 180 nM |
| Ic_S4_P5E.1_K5.1_C5.1_H5.1_A5.1_[T5C]_[T6C]_F5.1_[T8G]_[A10G]_T5.1 (ssRNA) RNA: UUUGACAACUGAUCGUUCUUUCUUGUACCAGUGUUCUUUCUCGAUCAGUUGUCUUU | 124 nM |
| Ic_S4_P5E.1_K5.1_C5.1_H5.1_A5.1_[T5C]_[T6A]_[A7T]_F5.1_[T8A]_[T9C]_[A10G]_T5.1 (ssRNA) RNA: UUUGACAACUGAUCGUUCUUUCUUGUACAUACGUUCUUUCUCGAUCAGUUGUCUUU | 14.5 nM |
| Ic_S4_P5E.1_K5.1_C5.1_H5.1_A5.1_[T5A]_F5.1_[T8A]_[A10T]_T5.1 (ssRNA) RNA: UUUGACAACUGAUCGUUCUUUCUUGUAAUAAUUUUCUUUCUCGAUCAGUUGUCUUU | 95.2 nM |
| Ic_S4_P5E.1_K5.1_C5.1_H5.1_A5.1_[T5C]_[T6A]_[A7C]_F5.1_[T8A]_[A10G]_T5.1 (ssRNA) RNA: UUUGACAACUGAUCGUUCUUUCUUGUACACAUGUUCUUUCUCGAUCAGUUGUCUUU | 130 nM |
| Ic_S4_P5E.1_K5.1_C5.1_H5.1_A5.1_[T5C]_[T6C]_F5.1_[T8G]_[T9C]_[A10T]_T5.1 (ssRNA) RNA: UUUGACAACUGAUCGUUCUUUCUUGUACCAGCUUUCUUUCUCGAUCAGUUGUCUUU | 650 nM |
| Ic_S4_P5E.1_K5.1_C5.1_H5.1_A5.1_[T5C]_[A7T]_F5.1_[T8C]_[T9G]_[A10T]_T5.1 (ssRNA) RNA: UUUGACAACUGAUCGUUCUUUCUUGUACUUCGUUUCUUUCUCGAUCAGUUGUCUUU | 199 nM |
| Ic_S4_P5E.1_K5.1_C5.1_H5.1_A5.1_[A7T]_F5.1_[T8G]_[T9C]_[A10C]_T5.1 (ssRNA) RNA: UUUGACAACUGAUCGUUCUUUCUUGUAUUUGCCUUCUUUCUCGAUCAGUUGUCUUU | 101 nM |
| Ic_S4_P5E.1_K5.1_C5.1_H5.1_A5.1_[T5C]_[T6G]_[A7T]_F5.1_[T9A]_T5.1 (ssRNA) RNA: UUUGACAACUGAUCGUUCUUUCUUGUACGUUAAUUCUUUCUCGAUCAGUUGUCUUU | 4.22 nM |
